Test results taken from paper PMC4997346 (2016).
No end group written: not given here.

T1: FVIIa [E] (Homo sapiens, UniProt P08709)
T1 chain 1: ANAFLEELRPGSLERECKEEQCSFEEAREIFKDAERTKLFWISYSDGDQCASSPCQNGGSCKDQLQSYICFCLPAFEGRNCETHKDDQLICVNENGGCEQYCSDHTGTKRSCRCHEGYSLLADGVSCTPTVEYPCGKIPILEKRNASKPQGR
T1 chain 2: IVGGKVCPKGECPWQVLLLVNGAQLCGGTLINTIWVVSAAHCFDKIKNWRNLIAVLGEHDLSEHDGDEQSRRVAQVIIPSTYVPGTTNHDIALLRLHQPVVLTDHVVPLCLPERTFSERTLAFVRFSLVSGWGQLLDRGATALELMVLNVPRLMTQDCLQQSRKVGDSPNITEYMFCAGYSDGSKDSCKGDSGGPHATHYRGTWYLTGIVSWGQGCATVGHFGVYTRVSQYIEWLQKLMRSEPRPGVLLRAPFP

T2: FVIIa/TF extrinsic tenase complex [E] (Homo sapiens, UniProt P08709)
T2 chain 1: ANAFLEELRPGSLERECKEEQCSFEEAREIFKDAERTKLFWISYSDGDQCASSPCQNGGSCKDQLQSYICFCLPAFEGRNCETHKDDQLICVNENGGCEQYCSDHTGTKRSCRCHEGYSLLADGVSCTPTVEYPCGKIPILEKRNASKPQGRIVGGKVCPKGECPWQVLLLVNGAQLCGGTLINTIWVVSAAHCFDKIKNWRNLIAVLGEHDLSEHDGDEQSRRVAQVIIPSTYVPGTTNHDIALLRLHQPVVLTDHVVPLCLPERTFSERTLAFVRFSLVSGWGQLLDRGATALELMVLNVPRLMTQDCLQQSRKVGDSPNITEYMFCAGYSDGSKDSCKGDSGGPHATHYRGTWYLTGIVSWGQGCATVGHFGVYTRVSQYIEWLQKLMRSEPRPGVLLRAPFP
T2 chain 2: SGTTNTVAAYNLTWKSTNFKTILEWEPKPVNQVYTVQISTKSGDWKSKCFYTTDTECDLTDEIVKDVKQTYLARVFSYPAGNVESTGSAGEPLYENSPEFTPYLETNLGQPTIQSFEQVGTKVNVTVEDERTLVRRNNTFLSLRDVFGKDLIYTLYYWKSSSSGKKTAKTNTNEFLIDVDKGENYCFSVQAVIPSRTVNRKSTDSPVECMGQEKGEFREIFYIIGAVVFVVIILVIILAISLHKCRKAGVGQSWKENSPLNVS

T3: FVIIa/sTF complex [E] (Homo sapiens, UniProt P08709)
T3 chain 1: T2 chain 1
T3 chain 2: T2 chain 2

B1: exactin (protein)
chain: LECYQKSKVVTCQPEQKFCYSDTTMFFPNHPVYLSGCTFSCTEEGNRRCCTTDKCNR
modifications: disulfide (positions not given here); also: four disulfide bonds, pairing not given here
B2: exactin (protein)
chain: B1 chain

Assays:
FVIIa/FX complex [ES] = FVIIa/FX complex [ES] (Homo sapiens, UniProt P08709); assay: FX activation inhibition kinetics (Lineweaver-Burk secondary plot, Ki')
[1] = target: FVIIa/TF/FX extrinsic tenase complex [ES] (Homo sapiens, UniProt P08709); assay: as above
[2] = target: intrinsic tenase complex (FIXa/FVIIIa) (Homo sapiens, UniProt P00740); assay: FX activation inhibition kinetics (Lineweaver-Burk secondary plot)
Sequence of intrinsic tenase complex (FIXa/FVIIIa) (P00740 47-461, chain 1 of 2): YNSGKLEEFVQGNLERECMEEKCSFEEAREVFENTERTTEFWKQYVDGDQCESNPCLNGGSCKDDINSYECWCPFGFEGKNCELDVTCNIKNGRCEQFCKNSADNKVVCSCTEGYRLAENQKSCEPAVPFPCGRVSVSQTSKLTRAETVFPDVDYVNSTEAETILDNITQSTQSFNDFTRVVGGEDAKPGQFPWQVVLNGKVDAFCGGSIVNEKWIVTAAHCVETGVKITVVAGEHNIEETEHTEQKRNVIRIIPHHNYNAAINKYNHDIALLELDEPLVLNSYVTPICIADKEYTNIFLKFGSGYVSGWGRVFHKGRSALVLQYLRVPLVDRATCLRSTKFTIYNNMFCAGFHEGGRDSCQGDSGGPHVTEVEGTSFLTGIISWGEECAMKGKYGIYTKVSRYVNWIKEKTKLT
Sequence of intrinsic tenase complex (FIXa/FVIIIa) (P00451 20-2351, chain 2 of 2, further chain): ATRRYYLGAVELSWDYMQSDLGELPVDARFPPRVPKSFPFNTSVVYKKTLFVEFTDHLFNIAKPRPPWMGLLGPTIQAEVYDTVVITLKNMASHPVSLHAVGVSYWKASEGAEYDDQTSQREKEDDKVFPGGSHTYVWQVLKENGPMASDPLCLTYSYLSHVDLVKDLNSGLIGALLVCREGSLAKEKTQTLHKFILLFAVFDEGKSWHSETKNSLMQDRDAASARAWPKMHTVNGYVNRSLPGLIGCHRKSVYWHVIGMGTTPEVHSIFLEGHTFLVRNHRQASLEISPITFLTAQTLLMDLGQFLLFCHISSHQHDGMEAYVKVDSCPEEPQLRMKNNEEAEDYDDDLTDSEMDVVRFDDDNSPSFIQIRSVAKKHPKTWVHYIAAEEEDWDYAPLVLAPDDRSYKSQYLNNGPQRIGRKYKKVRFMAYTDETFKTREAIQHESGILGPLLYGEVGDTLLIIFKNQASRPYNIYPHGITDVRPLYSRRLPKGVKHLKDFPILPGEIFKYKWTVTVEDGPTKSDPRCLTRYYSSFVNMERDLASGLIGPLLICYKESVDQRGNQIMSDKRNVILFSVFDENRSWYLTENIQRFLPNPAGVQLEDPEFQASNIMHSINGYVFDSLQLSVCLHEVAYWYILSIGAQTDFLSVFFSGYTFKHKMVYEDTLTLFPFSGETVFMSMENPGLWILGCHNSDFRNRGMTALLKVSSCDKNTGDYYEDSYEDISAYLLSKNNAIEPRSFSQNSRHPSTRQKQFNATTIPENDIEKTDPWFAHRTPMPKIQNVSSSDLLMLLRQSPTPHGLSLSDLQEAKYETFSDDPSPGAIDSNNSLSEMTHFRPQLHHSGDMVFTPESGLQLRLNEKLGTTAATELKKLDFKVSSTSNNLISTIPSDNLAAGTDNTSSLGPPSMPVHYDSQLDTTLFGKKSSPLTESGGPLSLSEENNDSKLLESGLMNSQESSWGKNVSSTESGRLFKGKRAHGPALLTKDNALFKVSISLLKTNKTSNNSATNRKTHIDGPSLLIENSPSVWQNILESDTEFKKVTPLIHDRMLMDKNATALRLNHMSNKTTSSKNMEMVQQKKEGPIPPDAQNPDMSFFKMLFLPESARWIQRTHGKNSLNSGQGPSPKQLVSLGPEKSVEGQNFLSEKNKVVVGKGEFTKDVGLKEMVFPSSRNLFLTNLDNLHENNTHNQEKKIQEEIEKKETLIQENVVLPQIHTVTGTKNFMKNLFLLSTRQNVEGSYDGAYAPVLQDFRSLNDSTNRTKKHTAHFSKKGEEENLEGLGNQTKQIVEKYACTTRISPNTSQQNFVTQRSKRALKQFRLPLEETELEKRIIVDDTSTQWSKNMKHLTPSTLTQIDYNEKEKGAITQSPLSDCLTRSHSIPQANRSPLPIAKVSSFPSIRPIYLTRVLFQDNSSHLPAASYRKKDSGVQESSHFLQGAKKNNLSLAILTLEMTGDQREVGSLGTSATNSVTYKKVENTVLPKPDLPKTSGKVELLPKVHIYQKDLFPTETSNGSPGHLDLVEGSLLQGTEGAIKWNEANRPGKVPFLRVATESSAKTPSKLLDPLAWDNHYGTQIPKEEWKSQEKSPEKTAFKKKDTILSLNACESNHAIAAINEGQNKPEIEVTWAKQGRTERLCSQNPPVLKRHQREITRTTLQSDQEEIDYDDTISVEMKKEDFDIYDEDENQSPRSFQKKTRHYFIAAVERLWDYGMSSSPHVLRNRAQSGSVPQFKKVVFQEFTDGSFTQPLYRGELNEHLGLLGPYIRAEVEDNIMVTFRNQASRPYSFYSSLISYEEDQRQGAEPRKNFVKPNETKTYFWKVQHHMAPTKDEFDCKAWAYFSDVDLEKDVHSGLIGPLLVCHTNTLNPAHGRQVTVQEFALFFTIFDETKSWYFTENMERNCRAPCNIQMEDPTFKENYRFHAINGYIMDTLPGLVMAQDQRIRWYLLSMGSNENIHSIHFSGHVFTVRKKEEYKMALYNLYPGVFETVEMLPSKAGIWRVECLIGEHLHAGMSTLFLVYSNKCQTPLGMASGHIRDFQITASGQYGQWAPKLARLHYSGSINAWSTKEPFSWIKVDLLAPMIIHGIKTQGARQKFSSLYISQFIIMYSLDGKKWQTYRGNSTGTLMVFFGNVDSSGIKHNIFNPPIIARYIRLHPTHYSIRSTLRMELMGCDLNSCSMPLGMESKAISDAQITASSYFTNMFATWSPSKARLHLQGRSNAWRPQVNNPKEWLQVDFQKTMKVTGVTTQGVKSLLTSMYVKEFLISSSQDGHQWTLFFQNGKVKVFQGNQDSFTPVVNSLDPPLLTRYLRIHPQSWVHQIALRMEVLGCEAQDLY

FVIIa [E] = target: T1, FVIIa [E]; assay: as above
[3] = target: T2, FVIIa/TF extrinsic tenase complex [E]; assay: as above
[4] = target: T2, FVIIa/TF extrinsic tenase complex [E]; assay: FIX activation inhibition kinetics (Lineweaver-Burk secondary plot)
[5] = target: FVIIa/TF/FIX complex [ES] (Homo sapiens, UniProt P08709); assay: FIX activation inhibition kinetics (Lineweaver-Burk secondary plot, Ki')
[6] = target: FVIIa/sTF/FX complex [ES] (Homo sapiens, UniProt P08709); assay: FX activation inhibition kinetics (Lineweaver-Burk secondary plot, Ki')
FVIIa/sTF complex [E] = target: T3, FVIIa/sTF complex [E]; assay: FX activation inhibition kinetics (Lineweaver-Burk secondary plot)

| Binder | Ki (FVIIa/FX complex [ES]) | Ki [1] | Ki [2] | Ki (FVIIa [E]) | Ki [3] | Ki [4] | Ki [5] | Ki [6] | Ki (FVIIa/sTF complex [E]) |
| --- | --- | --- | --- | --- | --- | --- | --- | --- | --- |
| B1 | 0.103 µM | 0.0306 µM | 1.67 µM | 0.184 µM | 0.154 µM | 129 µM | 38.7 µM | – | – |
| B2 | – | – | – | – | – | – | – | 295 µM | 1250 µM |
